± gives the uncertainty stated by the source.

This data set in a line: amyloid nucleation score (Sup35N fusion, yeast selection) (log enrichment); library NNK2; higher = more nucleation; inactive = no reads after selection. In outline: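 Three technical output replicates were used for random libraries. Psi-negative yeast expressing peptides of 20 random codons fused to Sup35N were induced with 100 μM copper sulfate for 24 hours and grown 7 days at 30°C on medium lacking adenine and uracil, and input and output plasmid inserts were Illumina-sequenced, excluding sequences with under 100 input reads. The nucleation score is the DiMSum log enrichment of output over input reads, centred on the mode score of non-aggregating sequences.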
In the case of ARTKVIY, the amyloid nucleation score was -1.34 ± 0.75.

Regarding ARTLWY, the amyloid nucleation score was -0.522 ± 0.28.

As for ARVIECLHGRN, the amyloid nucleation score is -0.147 ± 0.44.

ASITIHSFKMRTYTRAITRE: the amyloid nucleation score stood at 3.92 ± 0.064.

ASLLGQKSAVGILRIHSKLY: the amyloid nucleation score is -0.573 ± 1.1.

Turning to ASPFRF, the amyloid nucleation score is 0.816 ± 0.74.

ASPSHACGLC showed an amyloid nucleation score of 2.12 ± 0.15.

As for ASQFCNKSSSYRDSRYLYTL, the amyloid nucleation score is -0.802 ± 0.38.

ASSTRRSRSFNIGILCMFRM returned an amyloid nucleation score of 5.66 ± 0.06.

On to ASVCHTLVGILYDDEGARTR, for which the amyloid nucleation score was 0.85 ± 0.4.

As for ATFVIY, the amyloid nucleation score is -0.603 ± 1.

The substance ATIGSLWRNYNERLFST showed an amyloid nucleation score of 4.06 ± 0.089.

Substance ATPLSGMVFNWSFEWQGCLL came in with an amyloid nucleation score of 0.949 ± 0.18.

As to AVIDIIKRTSCTCDESCCIL, the amyloid nucleation score is 0.503 ± 0.31.

AVIVAIFCSSGYYRHFYTFT: the amyloid nucleation score is -0.214 ± 1.

AVLFNDTWGGFAPNWYLLLS came in with an amyloid nucleation score of 0.474 ± 0.38.

For AVNGQGDS, the amyloid nucleation score is -0.231 ± 0.43.

As to AVPCNC, the amyloid nucleation score was -0.216 ± 0.62.

AVRPGSRSWGVIRGVNSTFL gave an amyloid nucleation score of 1.08 ± 0.43.

As for AVSYVDILAFGLMFQKSLGK, the amyloid nucleation score came out at 5.74 ± 0.063.

Substance AVVDH showed an amyloid nucleation score of 0.336 ± 0.41.

Substance AVVIWAKML had an amyloid nucleation score of 0.372 ± 0.27.

In the case of AVYCTL, the amyloid nucleation score came to 0.088 ± 0.35.

The substance AWDEINYD had an amyloid nucleation score of 0.292 ± 0.56.

AWETFELVLY: the amyloid nucleation score was -0.145 ± 0.76.

Turning to AWHIPLTCGLHVIFLGR, the amyloid nucleation score result is “inactive”.

On to AWLVLWDIAI, for which the amyloid nucleation score is 0.583 ± 0.36.

Substance AWLYFVLFNRVTCCMTNVEE returned an amyloid nucleation score of 9.571 ± 0.037.

Take AWMRDLCSVYRCVGCDLLWA: the amyloid nucleation score came out at 6.25 ± 0.081.

Consider AWYKFIITMPFIFKSDITST, for which the amyloid nucleation score is -0.454 ± 0.54.

For AYFTYDNANLFDPFTRYTIE, the amyloid nucleation score was determined as 0.073 ± 0.55.

Consider AYHAMVCYINLFSDVYLHGY, for which the amyloid nucleation score was 4.98 ± 0.089.

AYIARYNPTSLNRVEYPPDD came in with an amyloid nucleation score of 1.49 ± 0.58.

As to AYKNYIPVVSVH, the amyloid nucleation score was -1.37 ± 1.1.

For AYRLGFNVMLTDAVVARDIL, the amyloid nucleation score was found to be 0.512 ± 0.66.

In turn, AYRWMDSSSTRFGTGLG had an amyloid nucleation score of 0.895 ± 0.81.

Take AYWYSQRAMGFKHSLFLT: the amyloid nucleation score was -0.921 ± 0.41.

Consider AYYFVLNVSTNLGNLGRTIL, for which the amyloid nucleation score amounted to 4.35 ± 0.11.

CACDNHIVNRSESHCYGSLR: the amyloid nucleation score was -0.293 ± 0.39.

CALGDATFNVWYMLS yielded an amyloid nucleation score of 4.14 ± 0.05.

In the case of CALNFCAEVARFLRMLKSLL, the amyloid nucleation score is -0.042 ± 0.79.

Substance CARFAN gave an amyloid nucleation score of 0.599 ± 0.64.

Take CASEVDNNSPPRWVRRTAGV: the amyloid nucleation score worked out at 0.777 ± 0.45.

With CASLRIEDP, the amyloid nucleation score was 1.17 ± 0.18.

The substance CCAVTVAMECGGIVLVRYCF showed an amyloid nucleation score of 0.453 ± 0.66.

Turning to CCCLSKHSNECGLRMDRPFT, the amyloid nucleation score was determined as 0.909 ± 0.6.

For the substance CCDVRS, the amyloid nucleation score came to 0.558 ± 0.51.

Take CCFTGIKGSYCFSWLACG: the amyloid nucleation score is -0.082 ± 0.3.

CCFVLTVR displayed an amyloid nucleation score of 5.174 ± 0.035.

For CCGFGDEKDN, the amyloid nucleation score is -0.206 ± 1.1.

As for CCLENTRVLTVLVSLSMV, the amyloid nucleation score came to 0.582 ± 0.35.

On to CCQFLVTWDVAYTSMFGSTL, for which the amyloid nucleation score is 3.56 ± 0.056.

CCQSSEYCWCAWQTSVTSVG came in with an amyloid nucleation score of 0.404 ± 0.8.

CCRGLIRMLDCCNYRRK came in with an amyloid nucleation score of 3.75 ± 0.067.

The substance CCVVYF returned an amyloid nucleation score of 9.638 ± 0.039.

For the substance CDFSSVTD, the amyloid nucleation score is -0.357 ± 0.4.

For CDLFGSCVDIWDTYINLSDR, the amyloid nucleation score was -0.573 ± 1.1.

Take CDMSHGTFFTIFCRLTNA: the amyloid nucleation score amounted to 4.81 ± 0.11.

Substance CDQYHSQPWMLKTQIRLMTA returned an amyloid nucleation score of 1.27 ± 0.3.

For CDQYLIYNLSVSGMSIASRG, the amyloid nucleation score was -0.497 ± 0.79.

Take CEFRDQRFPLVCAGYGRYIG: the amyloid nucleation score is 0.653 ± 0.57.

On to CEHRSLTFWHNGLLD, for which the amyloid nucleation score is -0.143 ± 0.65.

Turning to CEMLCQTIHSTLTWGIRRLS, the amyloid nucleation score worked out at 1.12 ± 0.46.

For the substance CFFFISAVGPEILIVGFLGV, the amyloid nucleation score is -0.684 ± 1.

Turning to CFFTCC, the amyloid nucleation score is 9.912 ± 0.045.

Turning to CFRNWACMSSQRYCMVVRGN, the amyloid nucleation score was -1.58 ± 0.54.

For the substance CFSRIFICN, the amyloid nucleation score is -0.075 ± 0.49.

In the case of CFVGTQLSFKVG, the amyloid nucleation score came out at 0.173 ± 0.49.

Regarding CFVWIIRLYVQSRMLSTSNL, the amyloid nucleation score is -0.181 ± 0.8.

On to CGLYWFMVFTF, for which the amyloid nucleation score came out at 0.147 ± 0.76.

Take CGNLSCPVGVCGIFRRPSTG: the amyloid nucleation score entry was “inactive”.

In turn, CGSRQAA came in with an amyloid nucleation score of 5.3 ± 0.085.

On to CGWTDFMMYTWTEIMQIQLR, for which the amyloid nucleation score is -1.03 ± 0.76.

Regarding CHKSACCKILVDDIALFN, the amyloid nucleation score was -0.419 ± 0.32.

In turn, CHLIVICIQFDKLNLESAFH returned an amyloid nucleation score of 0.547 ± 0.81.

As to CHRAKTVVGNRVNRGDWDNP, the amyloid nucleation score is -0.434 ± 0.76.

In the case of CHRLSNLKRVDDAGFVRWNY, the amyloid nucleation score was -0.477 ± 0.23.

In the case of CIELFPFAMVNRIFATYSYH, the amyloid nucleation score is -0.352 ± 0.25.

For the substance CIGLHC, the amyloid nucleation score was -0.196 ± 1.

CIISFGLMHEYCYVAM registered an amyloid nucleation score of 1.9 ± 0.13.

As to CILARWRYRRLHTSGLWASK, the amyloid nucleation score was determined as 0.9 ± 0.43.

With CIMVSIVPKGVCLGVLVAVA, the amyloid nucleation score is 0.345 ± 0.28.

With CINANRGRFLKEIMDLVLRE, the amyloid nucleation score is -0.586 ± 0.23.

In the case of CINVYKY, the amyloid nucleation score was found to be 6.768 ± 0.026.

CIRRESCIRICGGDCVCHRA: the amyloid nucleation score amounted to 2.97 ± 0.091.

The substance CIYVYSLVWM gave an amyloid nucleation score of 2.42 ± 0.2.

As to CKKKSRTDCMLSFCVCFDGV, the amyloid nucleation score is 7.276 ± 0.035.

For the substance CKLISFIRYPPPAYVVSRER, the amyloid nucleation score is 2.33 ± 0.13.

Regarding CKMRFLNMWRHFLKCLTAYT, the amyloid nucleation score entry was “inactive”.

In the case of CKTTQDSDITCK, the amyloid nucleation score was -0.747 ± 0.79.

As to CKVSVDN, the amyloid nucleation score came out at 0.011 ± 0.36.

Consider CKWIKEIVVED, for which the amyloid nucleation score was -0.981 ± 1.

CKWWGRGEGDIVVLWLSEKL yielded an amyloid nucleation score of 0.942 ± 0.66.

Take CLCCYTIM: the amyloid nucleation score was 7.381 ± 0.044.

Take CLCGYYQSRMDTYYEL: the amyloid nucleation score was -2.18 ± 0.54.

As to CLCPTNYDSSRIYLVRC, the amyloid nucleation score result is “inactive”.

In turn, CLDFYFIVGNFNQHLVRCVL yielded an amyloid nucleation score of 1.79 ± 0.16.

For the substance CLDNNKNYLDSRCGIRCY, the amyloid nucleation score result is “inactive”.

CLINMTIYGERWRCVNDVPN displayed an amyloid nucleation score of 3.54 ± 0.052.

On to CLKFFADGSQAGCSERAGLR, for which the amyloid nucleation score was found to be 0.041 ± 0.28.

For CLLLLCNPRISAE, the amyloid nucleation score is -0.582 ± 0.76.

On to CLMDCGLYFTGSNLRAMCTW, for which the amyloid nucleation score was -0.223 ± 0.49.

As to CLNKIETPSTVKFRECHCCD, the amyloid nucleation score came out at 4.517 ± 0.041.

As for CLNPFDSYGTSYCKCWWSAT, the amyloid nucleation score is -0.451 ± 0.33.

CLNTLFVEFRCLSMGACCGI had an amyloid nucleation score of 1.1 ± 0.31.

(Values after the supplement of paper PMC12042874.)
